Experimental data published in PMC5923107 (Antimicrobial Agents and Chemotherapy, 2018).

B1: TRL848 (antibody, V domains shown)
VH: QVQLLESGGDVVQPGTSLRLSCAASGFSLWTSGMHWVRQAPGKGLEWVAVMSYDETKKYYADSVRGRFSISRDNSRNTLYLQMNSLRVEDTAVYFCAKPRLDYLDYFHAADSWGQGTLVSVSS
VL: DIVLTQPPSVSVAPGQTATITCGGNYIGSKSVNWYQQRPGHAPVLVVYDDSDRPSGIPDRFSGSNSRSTATTATLTISRVEAGDEADYYCQVWETSEDLWVFGGGTKLTVL
notes: also called MAb TRL848
B2: TRL847 (antibody, V domains shown)
VH: QVQLVESGGGLVQPGGSLRLSCVASGFTFSRFSMNWVRQAPGMGLEWVSYISDTGRTIYYADSVKGRFTISRDNDKNTLYLQMKSLRDEDSAFYYCARDPDTPFVRAFDSWGQGVLVTVSS
VL: DIVMTQSPSFLSASVGDRVTITCRTSQVISSYLAWYQQRPGKAPKLLIYAASTLQSGVPSRFSGSGSGTRFSLTISNLQPEDFATYFCQQLTTYPPITFGQGTRLEIK
notes: also called MAb TRL847
B3: TRL854 (antibody, V domains shown)
VH: QVQLVESGAEVKKPGASVRVSCKGSGYTFTAYHMHWVRQAPGQGFEWVGWINPNSGATYYTSTFEGRVTMTRDTSITTAYMELSSLRSDDTAVYYCATDIVVERDASLGGFNSYGMDVWGQGTTVTVSS
VL: DIEMTQSPLSLPVTPGEPASISCRSSQSLLHSNGYNHLAWYLQKPGRSPHLLIYLASTRASGVPDRFSGSGSGTDFTLKISRVEAEDVGIYYCMQSLQTSITFGQGTRLEIK
notes: also called MAb TRL854
B4: TRL849 (antibody, V domains shown)
VH: QVQLVESGPGLVKPSQTLSLTCTVSGGSISNGGYHWSWIRQHPGKGLEWIGNIYYRGSTFYDPSLKSRVTISVDTSKSQFSLKLTSVTAADTAVYYCARMPLANYDLLTGLYIGAFDLWGQGTMVTVSS
VL: DIVLTQSPATLSVSPGERATLSCRASQSVNRNLAWFQQIPGQAPRLLIFDASTRAADIPARFSGGGSGAEFTLTVSSLQPEDFAVYYCQQYDKWPPGFGQGTKVEIK
notes: also called MAb TRL849
B5: TRL845 (antibody, V domains shown)
VH: QVQLVQSGGDLVQPGGSLRLSCAASGFTFSRYSMNWVRQAPGMGLEWVAYISDTSRTIYYADSVKGRFTISRDNAKNSLYLQMKSLRDEDTAVYYCARDPDTPFVRAFDSWGQGTLVTVSS
VL: DIVLTQSPSFLSASVGDRVTITCRASQLISSYFAWYQQKPGKPPKLLIYAASTLQSGVPSRFSGSGSGTQFSLTISSLQPEDFATYYCQQLNSYPPITFGQGTRLEIK
notes: also called MAb TRL845

These binders were tested against T1, hemagglutinin (HA) of influenza B virus B/Florida/04/2006 (Yamagata lineage) (Influenza B virus B/Florida/4/2006, UniProt E1TVD5, strain) (assay: ELISA). Details: both partners purified.
T1 construct: also called B/Florida/4/2006 HA; HA of B/Florida/04/2006; source: bought: Sino Biological

Binder | binding result
B1 | binds
B2 | binds
B3 | binds

The binders below were run against T2, hemagglutinin (HA) of influenza B virus B/Brisbane/60/2008 (Victoria lineage) (Influenza B virus B/Brisbane/60/2008, UniProt C0LT35, strain) (assay: ELISA). Details: both partners purified.
T2 construct: also called B/Brisbane/60/2008 HA; source: bought: Immune Tech

Binder | binding result
B1 | binds
B4 | binds
B2 | binds
B5 | binds
B3 | binds

These binders were tested against T3, hemagglutinin (HA) of influenza B virus B/Victoria/2/1987 (Victoria lineage) (Influenza B virus B/Victoria/2/1987, UniProt P22092, strain) (assay: ELISA). Details: both partners purified.
T3 construct: also called B/Victoria/2/1987 HA; source: bought: Immune Tech

Binder | binding result
B1 | binds
B4 | binds
B2 | binds
B5 | binds
B3 | binds

These binders were tested against T4, hemagglutinin (HA) of influenza B virus B/Malaysia/2506/2004 (Victoria lineage) (Influenza B virus B/Malaysia/2506/2004; …, UniProt C0LT35, strain) (assay: ELISA). Details: both partners purified.
T4 construct: also called B/Malaysia/2506/2004 HA; source: bought: Protein Sciences

Binder | binding result
B1 | binds
B4 | binds
B2 | binds
B5 | binds
B3 | binds
